T1: human DLL3 expressed on cells (human DLL3/BaF3) (human, UniProt Q9NYJ7 27-618)
T1 construct: Full-length human DLL3 on the membrane of transformed Ba/F3 cells; The ADCC assays also used NCI-H1184 small-cell lung cancer cells that express DLL3; also called Delta-like 3; NM_016941
T1 sequence: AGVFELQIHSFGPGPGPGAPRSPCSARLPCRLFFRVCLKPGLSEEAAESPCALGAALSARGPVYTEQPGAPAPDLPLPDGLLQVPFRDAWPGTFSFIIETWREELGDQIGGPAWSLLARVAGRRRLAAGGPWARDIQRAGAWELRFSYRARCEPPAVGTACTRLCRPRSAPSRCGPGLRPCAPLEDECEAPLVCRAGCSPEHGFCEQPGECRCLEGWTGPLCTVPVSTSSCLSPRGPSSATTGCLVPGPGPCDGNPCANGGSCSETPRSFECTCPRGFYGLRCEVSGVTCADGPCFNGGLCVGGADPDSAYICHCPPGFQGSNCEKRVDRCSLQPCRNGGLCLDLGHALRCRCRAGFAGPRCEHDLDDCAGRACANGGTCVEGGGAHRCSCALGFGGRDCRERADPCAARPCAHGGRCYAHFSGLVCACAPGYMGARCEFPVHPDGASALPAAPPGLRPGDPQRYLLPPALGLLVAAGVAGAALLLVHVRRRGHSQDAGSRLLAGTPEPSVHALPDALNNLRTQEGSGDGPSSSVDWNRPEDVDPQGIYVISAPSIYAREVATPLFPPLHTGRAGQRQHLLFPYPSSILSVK

T2: human DLL3-Fc (human)
T2 construct: also called soluble DLL3 protein
T2 chain: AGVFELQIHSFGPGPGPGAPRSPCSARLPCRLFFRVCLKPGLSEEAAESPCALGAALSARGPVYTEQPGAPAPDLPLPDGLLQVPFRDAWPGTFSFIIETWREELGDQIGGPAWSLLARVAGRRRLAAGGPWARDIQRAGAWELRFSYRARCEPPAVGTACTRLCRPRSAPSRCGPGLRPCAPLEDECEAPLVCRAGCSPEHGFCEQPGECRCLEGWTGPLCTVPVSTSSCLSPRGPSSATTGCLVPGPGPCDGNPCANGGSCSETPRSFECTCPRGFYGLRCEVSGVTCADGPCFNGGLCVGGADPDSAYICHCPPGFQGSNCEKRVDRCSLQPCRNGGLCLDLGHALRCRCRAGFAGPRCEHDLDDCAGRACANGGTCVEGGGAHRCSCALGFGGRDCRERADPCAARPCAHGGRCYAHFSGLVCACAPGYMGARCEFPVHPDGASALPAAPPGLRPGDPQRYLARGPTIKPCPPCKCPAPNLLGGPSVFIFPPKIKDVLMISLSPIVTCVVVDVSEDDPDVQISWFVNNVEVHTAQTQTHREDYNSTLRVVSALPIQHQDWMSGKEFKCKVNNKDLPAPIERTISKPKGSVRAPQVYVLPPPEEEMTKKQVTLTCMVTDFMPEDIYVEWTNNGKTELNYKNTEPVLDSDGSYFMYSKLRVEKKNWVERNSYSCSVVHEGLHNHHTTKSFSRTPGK

B1: DL309 mouse monoclonal antibody (antibody, mouse IgG1, kappa)
heavy: QVQLQQSGGDLMKPGASVKISCKAAGYTFSNYYIEWVKQRPGHGLEWIGEILPGSGSTTYNEKFKGKASFTADTSSNTAYMQLSSLTSEDSAVYYCARWGAREPGFPYWGQGTLVTVSAAKTTPPSVYPLAPGSAAQTNSMVTLGCLVKGYFPEPVTVTWNSGSLSSGVHTFPAVLQSDLYTLSSSVTVPSSTWPSETVTCNVAHPASSTKVDKKIVPRDCGCKPCICTVPEVSSVFIFPPKPKDVLTITLTPKVTCVVVDISKDDPEVQFSWFVDDVEVHTAQTQPREEQFNSTFRSVSELPIMHQDWLNGKEFKCRVNSAAFPAPIEKTISKTKGRPKAPQVYTIPPPKEQMAKDKVSLTCMITDFFPEDITVEWQWNGQPAENYKNTQPIMNTNGSYFVYSKLNVQKSNWEAGNTFTCSVLHEGLHNHHTEKSLSHSPGK
light: DIVMTQSQKFMSTSVGDRVSVTCKASQNVGTNVAWYQQKPGQSPKALIYSASYRYSGVPDRFTGSGSGTDFTLTISNVQSEDLAEYFCQQYNNYPLTFGAGTKLELKRADAAPTVSIFPPSSEQLTSGGASVVCFLNNFYPKDINVKWKIDGSERQNGVLNSWTDQDSKDSTYSMSSTLTLTKDEYERHNSYTCEATHKTSTSPIVKSFNRNEC
notes: also called DL309 mouse antibody
B2: DL306 mouse monoclonal antibody (antibody, mouse IgG1, kappa)
heavy: EVQLQQSGPELVKPGASVKMSCRASGYTFTDYYMKWVKQSHGKSLEWIGDINPNNGDTFYNQKFKGKATLTIDKSSSTAYMQLNSLTSDDSAVYYCARDGNYAYFDYWGQGTTLTVSSAKTTPPSVYPLAPGSAAQTNSMVTLGCLVKGYFPEPVTVTWNSGSLSSGVHTFPAVLQSDLYTLSSSVTVPSSTWPSETVTCNVAHPASSTKVDKKIVPRDCGCKPCICTVPEVSSVFIFPPKPKDVLTITLTPKVTCVVVDISKDDPEVQFSWFVDDVEVHTAQTQPREEQFNSTFRSVSELPIMHQDWLNGKEFKCRVNSAAFPAPIEKTISKTKGRPKAPQVYTIPPPKEQMAKDKVSLTCMITDFFPEDITVEWQWNGQPAENYKNTQPIMNTNGSYFVYSKLNVQKSNWEAGNTFTCSVLHEGLHNHHTEKSLSHSPGK
light: DIVLTQSPASLAVSLGQRATISCRASKSVSTSGYSYMHWYQQKPGQPPKLLIFLASNLESGVPARFSGSGSGTDFTLNIHPVEEEDAATYYCQHSRHLPWTFGGGTKLEIKRADAAPTVSIFPPSSEQLTSGGASVVCFLNNFYPKDINVKWKIDGSERQNGVLNSWTDQDSKDSTYSMSSTLTLTKDEYERHNSYTCEATHKTSTSPIVKSFNRNEC
notes: also called DL306 mouse antibody
B3: DL312 mouse monoclonal antibody (antibody, mouse IgG1, kappa)
heavy: EVKLVESGGGLVQPGGSLSLSCAASGFTFTDYYMNWVRQPPGKALEWLALIRNKANGYTTEYNASVKGRFTISRDNSQNILYLQMNALRAEDSATYYCARDSDGYYEYYFDYWGQGTTLTVSSAKTTPPSVYPLAPGSAAQTNSMVTLGCLVKGYFPEPVTVTWNSGSLSSGVHTFPAVLQSDLYTLSSSVTVPSSTWPSETVTCNVAHPASSTKVDKKIVPRDCGCKPCICTVPEVSSVFIFPPKPKDVLTITLTPKVTCVVVDISKDDPEVQFSWFVDDVEVHTAQTQPREEQFNSTFRSVSELPIMHQDWLNGKEFKCRVNSAAFPAPIEKTISKTKGRPKAPQVYTIPPPKEQMAKDKVSLTCMITDFFPEDITVEWQWNGQPAENYKNTQPIMNTNGSYFVYSKLNVQKSNWEAGNTFTCSVLHEGLHNHHTEKSLSHSPGK
light: DIQMTQSPSSLSASLGERVSLTCRASQEISDYLSWLQQKPDGTIKRLIFAASTLDSGVPKRFSGSRSGSDFSLSISSLESEDFADYYCLQYASYPYTFGSGTKLEIKRADAAPTVSIFPPSSEQLTSGGASVVCFLNNFYPKDINVKWKIDGSERQNGVLNSWTDQDSKDSTYSMSSTLTLTKDEYERHNSYTCEATHKTSTSPIVKSFNRNEC
notes: also called D312; DL312 mouse antibody
B4: DL301 mouse monoclonal antibody (antibody, mouse IgG1, kappa)
heavy: QVQLQQSGADLVRPGTSVKVSCKASGYAFTNYLIEWIKQRPGQGLEWIGVMNPGSGGTHYSEKFRGKATLTADKSSSTAYMQLISLTSDDSAVYFCARSDYDYVTYAMDYWGQGTSVTVSSAKTTPPSVYPLAPGSAAQTNSMVTLGCLVKGYFPEPVTVTWNSGSLSSGVHTFPAVLQSDLYTLSSSVTVPSSTWPSETVTCNVAHPASSTKVDKKIVPRDCGCKPCICTVPEVSSVFIFPPKPKDVLTITLTPKVTCVVVDISKDDPEVQFSWFVDDVEVHTAQTQPREEQFNSTFRSVSELPIMHQDWLNGKEFKCRVNSAAFPAPIEKTISKTKGRPKAPQVYTIPPPKEQMAKDKVSLTCMITDFFPEDITVEWQWNGQPAENYKNTQPIMNTNGSYFVYSKLNVQKSNWEAGNTFTCSVLHEGLHNHHTEKSLSHSPGK
light: DIKMTQSPSSMYASLGERVTITCKASQDINSYLIWFQQKPGKSPKTLIYRTNRLVDGVPSRFSGSGSGQDYSLTISSLEYGDMGIYYCLQYDEFPFTFGSGTKLEIKRADAAPTVSIFPPSSEQLTSGGASVVCFLNNFYPKDINVKWKIDGSERQNGVLNSWTDQDSKDSTYSMSSTLTLTKDEYERHNSYTCEATHKTSTSPIVKSFNRNEC
notes: also called DL301 mouse antibody

target: T1, human DLL3 expressed on cells (human …); assay: flow cytometry on human DLL3/BaF3 cells, antibody 5 µg/ml
Description: The binding of each monoclonal antibody to human DLL3 expressed on a cell membrane and the behavior of a human DLL3-monoclonal antibody complex on the cell membrane were analyzed by flow cytometry. Human DLL3/BaF3 cells were suspended in a FACS buffer (PBS containing 1% fetal bovine serum and 0.05% sodium azide). The cell suspension of 1×10⁶ cells/ml was reacted with the monoclonal antibody (final concentration: 5 μg/ml) at 4° C. for 30 minutes. After centrifugation and supernatant removal, the cells were washed once with a FACS buffer. FITC-labeled anti-mouse IgG (H+L) antibodies (Beckman Coulter, Inc.) were added thereto and incubated at 4° C. for 30 minutes. Unreacted FITC antibodies were removed by centrifugation. Then, the cells were resuspended and analyzed using a flow cytometer FACSCalibur (Becton, Dickinson and Company). For the purpose of analyzing the movement or disappearance of the DLL3-antibody complex from the cell membrane, human DLL3/BaF3 cells were suspended in an RPMI1640 culture medium containing 10% fetal bovine serum (FBS) and mouse IL3. The cell suspension of 1×10⁶ cells/ml was mixed with the monoclonal antibody (final concentration: 5 μg/ml) and reacted at 37° C. for 1 hour or 4 hours in a CO2 incubator. After the reaction, the amount of the antibody bound onto the cell membrane was analyzed by flow cytometry in the same way as above. The geometric mean of fluorescence intensity values (X Geo Mean) in a cell histogram plot was determined using the analytical software CELLQuest Pro included in FACSCalibur. All the isolated anti-DLL3 monoclonal antibodies bound to DLL3 on the cells (FIG. 3(a)). The reaction of the antibody with the cells at 4° C. inhibits membrane fluidity such as the cellular uptake of the DLL3-antibody complex from the cell membrane. The reaction of the antibody with the cells at 37° C. may cause the cellular uptake of the DLL3-antibody complex and shading (release from the cell membrane) resulting from protease digestion or the like. The amount of each monoclonal antibody bound onto the cell membrane as a result of incubation at 37° C. for 1 hour or 4 hours is shown in FIG. 3(b) as a relative value compared with that at 4° C. As a result of incubation at 37° C., the amount of the antibody DL303, DL304, DL305, DL308, DL309, or MAB4315 on the surface of the cell membrane was decreased.

binding result | Binder
binds | B1
binds | B2
binds | B3
binds | B4

Target: T2, human DLL3-Fc
Assay: ELISA, immobilized human DLL3-Fc
Description: The competition of a chimeric antibody and a mouse antibody for binding to the antigen molecule was analyzed by ELISA (FIG. 8 (b)). Human DLL3-Fc was added at 10 ng/well to a Nunc immunoplate and immobilized thereon. A mixture (final concentration: 50 ng/ml) of the chimeric antibody and the appropriately diluted mouse antibody was added to the DLL3-Fc protein-immobilized plate. The plate was incubated at room temperature for 1 hour and then washed. Alkaline phosphatase-labeled anti-human antibodies were added thereto and incubated. After the incubation, Sigma 104 was added thereto, and the absorbance was measured. The binding of the chimeric antibody to the antigen molecule competed with that of the original mouse monoclonal antibody thereto.

binding result | Binder
binds | B1
binds | B2
binds | B3
binds | B4

— patent publication US20250236679A1 (Chugai, published 2025)
